Measured values from patent publication US20200055939A1 (Genentech, published 2020).
Positions count from the first letter of the chain named. “And” between values parts separate entries of the source, which are not always exact repeats. Equal entries are not always repeated. Where two headings read alike, the source gives them in different places.

B1: 13A9 (antibody, V domains shown)
VH: QVQLQQSGAELVRPGTSVKVSCKASGYAFTNYLIEWVKQRPGQGLEWIGAINPGSGATNYNEKFKDKARLTADKSSNTAYLQFSSLTSDDSAVYFCARFLGNYFDNWGQGATLTVSS
VL: DIQMTQSPASLSASVGETVTITCRASGNIHSYLAWYQQKQGKSPQLLVYYAETLADGVPSRFSGRGSGTQYSLKINSLQPEDFGSYFCQQFWTTPYTFGGGTKVEIK
notes: Mouse variable domains; constant regions differ by assay
B2: 6E1.1.12 (antibody, V domains shown)
VH: QGQMQQSGAELVKPGASVKLSCKTSGFTFSDNYISWLKQKPGQSLEWIAWIYAGTGGSSYNQKFRDKAQLTVDTSSRTAYMQLSSLTTEDSAIYYCARHDYYGTSGAWFAYWGRGTLVTVSA
VL: DVLMTQTPLSLPVSLGDQASISCRSSQHIVHSNENTYLEWYLQKPGQSPKLLIYKVSNRFSGVPDRFSGSGSGTDFTLKISRVEAEDLGVYYCFQGSHVPWTFGGGTKVEIK
notes: Mouse hybridoma antibody; constant regions differ by assay
B3: 2E5.2.3 (antibody, V domains shown)
VH: B2 VH with S58T, R65T, D66A, R77S, L83F, R114Q
VL: B2 VL with I21L, H28N, S32I, E34G
notes: as for B2
B4: 7A3.1.9 (antibody, V domains shown)
VH: QVQLKESGPGLVAPSQSLSITCTVSGFALTGSGVNWVRQPPGKGLEWLGMIWGDGNTDYNSALKSRLSISKDNSKSQIFLKMNSLQTDDTARYYCARGAHYGKRWYFDVWGAGTTVTVSS
VL: DIQMTQTTSSLSASLGDRVTISCSASQGINNYLNWYQQKPDGTVKLLIYYTSSLPSGVPSRFSGSGSGTDYSLTISNLEPEDIATYYCQQYSKLPPTFGGGTKVEIK
notes: as for B2
B5: 1E6.1.3 (antibody, V domains shown)
VH: B4 VH with A28S, K43Q, I78V
VL: B4 VL with S9F, K39R, S53T, T85S
notes: as for B2

How the values were obtained:
[1] = target: T1, MICA002.His (human MICA*002 alpha 3 domain, His tagged) (human); assay: SPR, antibody captured;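 further: SPR with antibody held by surface-bound anti-Fc while His-tagged alpha three domains flow over, Kd derived by fitting a one-to-one binding model to sensograms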
T1 construct: also called huMICA*002 alpha 3-his
T1 chain: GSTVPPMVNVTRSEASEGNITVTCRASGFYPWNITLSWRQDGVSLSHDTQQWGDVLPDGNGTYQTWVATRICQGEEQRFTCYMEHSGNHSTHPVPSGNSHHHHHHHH

[2] = target: T2, MICA004.His (human MICA*004 alpha 3 domain, His tagged) (human); assay: SPR, antibody captured;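 further: SPR with antibody held by surface-bound anti-Fc while His-tagged alpha three domains flow over, Kd derived by fitting a one-to-one binding model to sensograms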
T2 construct: also called huMICA*004 alpha 3-his
T2 chain: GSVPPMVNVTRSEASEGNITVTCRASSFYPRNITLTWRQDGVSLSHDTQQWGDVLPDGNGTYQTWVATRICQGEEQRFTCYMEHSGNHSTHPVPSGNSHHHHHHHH

[3] = target: T3, MICB005.His (human MICB*005 alpha 3 domain, His tagged) (human); assay: SPR, antibody captured;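 further: SPR with antibody held by surface-bound anti-Fc while His-tagged alpha three domains flow over, Kd derived by fitting a one-to-one binding model to sensograms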
T3 construct: also called huMICB*005 alpha 3-his
T3 chain: T1 chain with R12C, A15V, G28S, W32R, S37T, D48N, C72R, S90G

[4] = target: T4, MICA008.His (human MICA*008 alpha 3 domain, His tagged) (human); assay: SPR, antibody captured;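 further: SPR with antibody held by surface-bound anti-Fc while His-tagged alpha three domains flow over, Kd derived by fitting a one-to-one binding model to sensograms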
T4 construct: Also used for FPOP (expressed in CHO); also called huMICA*008 alpha 3-his; MICA*008 a3
T4 chain: T1 chain with G28S, W32R, T35I, S37T, Q73R

[5] = target: T5, MICB*005 on HCC1534 cells (human, UniProt Q29980 23-383); assay: cell-based or functional assay
T5 sequence (looked up): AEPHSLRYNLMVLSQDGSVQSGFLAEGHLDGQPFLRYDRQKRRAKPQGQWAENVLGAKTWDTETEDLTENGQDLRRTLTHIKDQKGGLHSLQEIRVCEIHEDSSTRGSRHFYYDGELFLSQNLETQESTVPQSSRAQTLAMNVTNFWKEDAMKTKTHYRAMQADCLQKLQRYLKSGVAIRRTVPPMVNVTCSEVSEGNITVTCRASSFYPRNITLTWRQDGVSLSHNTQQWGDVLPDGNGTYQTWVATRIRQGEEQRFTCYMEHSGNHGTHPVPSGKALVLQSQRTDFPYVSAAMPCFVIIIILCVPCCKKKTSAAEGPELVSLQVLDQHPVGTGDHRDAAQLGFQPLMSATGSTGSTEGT

[6] = target: T6, MICA*008 on MEL-JUSO cells (human, UniProt Q29983 24-317); assay: cell-based or functional assay
T6 chain: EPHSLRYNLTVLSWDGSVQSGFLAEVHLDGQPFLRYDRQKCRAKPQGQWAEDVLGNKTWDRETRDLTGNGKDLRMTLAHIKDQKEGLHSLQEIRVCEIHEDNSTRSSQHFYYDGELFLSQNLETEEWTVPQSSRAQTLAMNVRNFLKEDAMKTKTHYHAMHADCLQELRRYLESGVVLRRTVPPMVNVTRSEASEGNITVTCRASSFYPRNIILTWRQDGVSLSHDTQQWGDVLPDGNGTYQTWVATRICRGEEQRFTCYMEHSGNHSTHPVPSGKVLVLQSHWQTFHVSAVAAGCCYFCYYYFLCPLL

[7] = target: T7, MICA*004 on HCC1534 cells (human, UniProt Q29983 24-383); assay: cell-based or functional assay
[8] = target: T5, MICB*005 on HCC1534 cells; assay: cell-based or functional assay; remark: listed apart in the source
[9] = target: T6, MICA*008 on MEL-JUSO cells; assay: cell-based or functional assay
[10] = target: T7, MICA*004 on HCC1534 cells; assay: cell-based or functional assay; remark: listed apart in the source
[11] = target: T8, MILL1-MICA chimera.murine IgG2a Fc fusion (mouse MILL1 with grafted human MICA*008 …); assay: ELISA, coated chimera
T8 construct: MICA*008 residues around NGTYQT on the 'back' and in the beta2 microglobulin interface grafted onto murine MILL1; also called MILL1-MICA*008 chimera

[12] = target: T5, MICB*005 on HCC1534 cells; assay: cell-based or functional assay; remark: listed apart in the source
[13] = target: MICA*002 on cells (PANC-1; B16-MICA002) (human, UniProt Q29983 24-383); assay: cell-based or functional assay
[14] = target: T6, MICA*008 on MEL-JUSO cells; assay: cell-based or functional assay
[15] = target: T7, MICA*004 on HCC1534 cells; assay: cell-based or functional assay; remark: listed apart in the source
[16] = target: T9, MICA.008.a3.T204-S297.E215N.mIgG2a.Glyco12 (human; mouse, UniProt Q29983 204-297, engineered N-linked glycosylation site E215N); assay: ELISA, coated variant;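 further: ELISA with plates coated at 2 ug/ml with MICA*008 alpha 3 glycosylation variants as murine IgG2a Fc fusions, antibody binding detected by HRP anti-human IgG Fc and TMB absorbance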
T9 construct: not shown: murine IgG2a Fc
T9 chain: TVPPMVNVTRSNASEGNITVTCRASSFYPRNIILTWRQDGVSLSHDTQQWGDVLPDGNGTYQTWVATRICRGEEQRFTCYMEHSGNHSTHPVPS

[17] = target: T10, MICA.008.a3.T204-S297.C-terminal insert of N298.G299.S300.mIgG2a.Glyco17 (human; mouse, UniProt Q29983 204-297, engineered N-linked glycosylation site at inserted N298); assay: ELISA, coated variant;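 further: ELISA with plates coated at 2 ug/ml with MICA*008 alpha 3 glycosylation variants as murine IgG2a Fc fusions, antibody binding detected by HRP anti-human IgG Fc and TMB absorbance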
T10 construct: not shown: murine IgG2a Fc
T10 chain: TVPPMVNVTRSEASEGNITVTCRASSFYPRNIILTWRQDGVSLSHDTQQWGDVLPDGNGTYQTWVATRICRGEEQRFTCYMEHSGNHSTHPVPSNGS

[18] = target: T11, MICA.008.a3.T204-S297.I236T.mIgG2a.Glyco13 (human; mouse, UniProt Q29983 204-297, engineered N-linked glycosylation site created by I236T); assay: ELISA, coated variant;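 further: ELISA with plates coated at 2 ug/ml with MICA*008 alpha 3 glycosylation variants as murine IgG2a Fc fusions, antibody binding detected by HRP anti-human IgG Fc and TMB absorbance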
T11 construct: not shown: murine IgG2a Fc
T11 chain: T9 chain with N12E, I33T

[19] = target: T12, MICA.008.a3.T204-S297.H248N.mIgG2a.Glyco15 (human; mouse, UniProt Q29983 204-297, engineered N-linked glycosylation site H248N); assay: ELISA, coated variant;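 further: ELISA with plates coated at 2 ug/ml with MICA*008 alpha 3 glycosylation variants as murine IgG2a Fc fusions, antibody binding detected by HRP anti-human IgG Fc and TMB absorbance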
T12 construct: not shown: murine IgG2a Fc
T12 chain: T9 chain with N12E, H45N

[20] = target: T13, MICA.008.a3.R202-S297.R202N mIgG2a.Glyco11 (human; mouse, UniProt Q29983 203-297, engineered N-linked glycosylation site R202N); assay: ELISA, coated variant
T13 construct: not shown: murine IgG2a Fc
T13 chain: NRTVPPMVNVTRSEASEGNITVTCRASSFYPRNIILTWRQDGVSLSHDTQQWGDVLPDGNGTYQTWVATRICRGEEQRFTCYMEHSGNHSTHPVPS

[21] = target: T14, MICA.008.a3.T204-S297.E215N.G243N.H248N.R279N.C-terminal insert of N298.G299.S300.mIgG2a.Glyco4 … (human; mouse, engineered N-linked glycosylation sites E215N, G243N, H248N, R279N and inserted N298); assay: ELISA, coated variant
T14 construct: not shown: murine IgG2a Fc

[22] = target: T15, MICA.008.a3.T204-S297.G243N.mIgG2a.Glyco14 (human; mouse, UniProt Q29983 204-297, engineered N-linked glycosylation site G243N); assay: ELISA, coated variant
T15 construct: not shown: murine IgG2a Fc
T15 chain: T9 chain with N12E, G40N

[23] = target: T16, MICA.008.a3.T204-S297.R279N.mIgG2a.Glyco16 (human; mouse, UniProt Q29983 204-297, engineered N-linked glycosylation site R279N); assay: ELISA, coated variant
T16 construct: not shown: murine IgG2a Fc
T16 chain: T9 chain with N12E, R76N

[24] = target: T4, MICA008.His (human MICA*008 alpha 3 …); assay: ELISA, coated antigen

Binder | Kd [1] [nM] | Kd [2] [nM] | Kd [3] [nM] | Kd [4] [nM] | maximum inhibition of shedding [7] [%] | % max inhibition of shedding [8] [%] | EC50 of shedding inhibition [8] [µg/mL] | % max inhibition of shedding [9] [%] | EC50 of shedding inhibition [9] | % max inhibition of shedding [10] [%] | EC50 of shedding inhibition [10] | binding result [11] | EC50 of shedding inhibition [12] [µg/mL] | Max % Inhibition of shedding [12] [%] | binding result [16] | binding result [17] | binding result [18] | binding result [19] | binding result [20] | binding result [22] | further results
B1 | 0.5 | 1.55 | 0.97 | 0.94 | ~60 | 79 | 0.053 | 47 | 0.489 µg/mL | 66 | 0.166 µg/mL | binds | 0.0349 | 76 | binds | binds | binds | binds | binds | – | maximum inhibition of shedding [5]: 75%; maximum inhibition of shedding [6]: ~40%; EC50 of shedding inhibition [13]: 0.418 µg/mL; Max % Inhibition of shedding [13]: 66%; EC50 of shedding inhibition [14]: 0.794 µg/mL; Max % Inhibition of shedding [14]: 50%; EC50 of shedding inhibition [15]: 0.599 µg/mL; Max % Inhibition of shedding [15]: 56%
B2 | 2.8 | 8.7 | 10 | 6.8 | ~50 | – | 0.0791 | – | – | – | 0.265 µg/mL and 0.157 µg/mL | binds | 0.0724 | 58 | binds | – | – | – | binds | – | binding result [21]: binds
B3 | 0.66 | 1.96 | 2.7 | 1.8 | – | 60 | 0.107 | – | 0.195 µg/mL and 0.112 µg/mL | – | 0.107 µg/mL and 0.23 µg/mL | binds | – | – | binds | binds | binds | binds | binds | binds | binding result [21]: binds; binding result [23]: binds
B4 | 22 | 8.7 | 16 | – | – | – | – | < 10 | – | 50 | 0.411 µg/mL | – | – | – | binds | binds | binds | – | binds | binds | binding result [24]: binds
B5 | 24 | 37 | 18 | – | – | – | – | 20 | – | 46 | 0.681 µg/mL | – | – | – | binds | binds | binds | – | binds | binds | binding result [24]: binds
